From US20170137467A1 (CHROMOTEK, published 2017)
Square brackets hold non-standard residues; d marks the D form. GABA = NCCCC(=O)O

Legend:
Experiment in all cases: peptide library pulldown on immobilized Nb, LC-MS of supernatant; ratio vs GFP-Nb control (1 = not captured, 0 = captured)
[1] = biological target: T1, BC2T Q12(I/L) library peptide, version 1 (N-terminal acetyl, C-terminal amide)
T1 construct: Ile and Leu versions are isobaric; two versions resolved but not assigned; also called I/L1
Description: (§1) In total, 12 different BC2T libraries displaying all 20 proteinogenic amino acids in one single position of the peptide were used in immunoprecipitation experiments. […] The direct comparison with the GFP-Nb made it possible to determine the quantitative degree of peptide capture without the need of labeled standards. […] The more peptide was captured the more the value approximates 0. It was not possible to discriminate between isoleucine (I) and leucine (L) peptide versions since these peptides are isobaric.
(§2) To investigate the binding specificity of the BC2T and derived mutants peptide libraries for each amino acid position of the sequence […] (SEQ ID NO:4) were synthesized with acetyl and amide groups located at the N-termini or C-termini respectively (Intavis). […] Incubations were performed in 300 μl PBS/0.01% CHAPS for 1 h on a HulaMixer (Life Technologies). Subsequent to a centrifugation step 10 μl supernatant were analyzed in a LC-MS procedure. Peptides were separated using an UltiMate3000 RSLCnano System (Thermo Scientific), composed of a C18 PepMap100μ-Precolumn (300 μm×5 mm; particle size: 5 μm; pore size: 100 Å—Thermo Scientific) and a C18 analytical column (Acclaim Rapid Separation LC (RSLC) Column: 150 mm×5 mm; particle size: 2.2 μm; pore size: 100 Å—Thermo Scientific). A step gradient was applied starting at 8% and ending after 20 min at 30% eluent B (80% acetonitrile, 20% H₂O, 0.1% formic acid).

[2] = biological target: T2, BC2T H9G library peptide (human)
T2 peptide: Ac-PDRKAAVSGWQQ-NH2
Description: as §1, §2

[3] = biological target: T3, BC2T W10F library peptide (human)
T3 construct: also called BC2TW10X: F
T3 peptide: Ac-PDRKAAVSHFQQ-NH2
Description: as §1, §2

[4] = biological target: T4, BC2T Q11R library peptide (human)
T4 peptide: Ac-PDRKAAVSHWRQ-NH2
Description: as §1, §2

[5] = biological target: T5, BC2T W10Y library peptide (human)
T5 construct: also called BC2TW10X: Y
T5 peptide: Ac-PDRKAAVSHYQQ-NH2
Description: as §1, §2

[6] = biological target: T6, BC2T Q12R library peptide (human)
T6 peptide: Ac-PDRKAAVSHWQR-NH2
Description: as §1, §2

[7] = biological target: T7, BC2T Q11C* library peptide (human, SMILES …)
T7 construct: also called C(Abu)
T7 peptide: Ac-PDRKAAVSHW[GABA]Q-NH2
Description: as §1, §2

[8] = biological target: T8, BC2T Q11M library peptide (human)
T8 peptide: Ac-PDRKAAVSHWMQ-NH2
Description: as §1, §2

[9] = biological target: T9, BC2T S8A library peptide (human)
T9 construct: also called BC2TS8X: A
T9 peptide: Ac-PDRKAAVAHWQQ-NH2
Description: as §1, §2

[10] = biological target: T10, BC2T Q11W library peptide (human)
T10 peptide: Ac-PDRKAAVSHWWQ-NH2
Description: as §1, §2

[11] = biological target: T11, BC2T S8Y library peptide (human)
T11 construct: also called BC2TS8X: Y
T11 peptide: Ac-PDRKAAVYHWQQ-NH2
Description: as §1, §2

[12] = biological target: T12, BC2T W10T library peptide (human)
T12 construct: also called BC2TW10X: T
T12 peptide: Ac-PDRKAAVSHTQQ-NH2
Description: as §1, §2

[13] = biological target: T13, BC2T S8C* library peptide (human, also: Abu described as gamma-amino butyric acid)
T13 construct: also called BC2TS8X: C*; C(Abu)
T13 peptide: Ac-PDRKAAV[GABA]HWQQ-NH2
Description: as §1, §2

[14] = biological target: T14, BC2T Q11K library peptide (human)
T14 peptide: Ac-PDRKAAVSHWKQ-NH2
Description: as §1, §2

[15] = biological target: T15, BC2T W10A library peptide (human)
T15 construct: also called BC2TW10X: A
T15 peptide: Ac-PDRKAAVSHAQQ-NH2
Description: as §1, §2

[16] = biological target: T16, BC2T Q11(I/L) library peptide, version 2 (N-terminal acetyl, C-terminal amide)
T16 construct: Ile and Leu versions are isobaric; two versions resolved but not assigned; also called I/L2
Description: as §1, §2

[17] = biological target: T17, BC2T Q12H library peptide (human)
T17 peptide: Ac-PDRKAAVSHWQH-NH2
Description: as §1, §2

[18] = biological target: T18, BC2T H9E library peptide (human)
T18 peptide: Ac-PDRKAAVSEWQQ-NH2
Description: as §1, §2

[19] = biological target: T19, BC2T W10D library peptide (human)
T19 construct: also called BC2TW10X: D
T19 peptide: Ac-PDRKAAVSHDQQ-NH2
Description: as §1, §2

B1: BC2-Nb(R106E) (VHH)
VHH: QVQLVESGGGLVQPGGSLTLSCTASGFTLDHYDIGWFRQAPGKEREGVSCINNSDDDTYYADSVKGRFTIFMDNAKDTVYLQMNSLKPEDTAIYYCAEARGCKRGEYEYDFWGQGTQVTVSS
notes: Headlock mutant; immobilized on beads in the library pulldown
- ratio [1]: 0.1
- ratio [2]: 0.7
- ratio [3]: 1
- ratio [4]: 0.1
- ratio [5]: 1
- ratio [6]: 0
- ratio [7]: 0.2
- ratio [8]: 0.2
- ratio [9]: 0.1
- ratio [10]: 0.1
- ratio [11]: 0.9
- ratio [12]: 1.1
- ratio [13]: 0.1
- ratio [14]: 0.1
- ratio [15]: 1.1
- ratio [16]: 0.4
- ratio [17]: 0.1
- ratio [18]: 0.5
- ratio [19]: 1.1
